Test results as given in patent publication US20260035462A1 (Hoffmann-La Roche, published 2026).
Read-outs that look alike come from different tables or passages of the source. One block for each binder: values may come before it.

Assays:
[1] = target: T1, Trop2 on human cancer cell lines (T-47D, HPAF II, HeLa NLR, OVMANA) (human, UniProt P09758 27-323); assay: flow cytometry on T-47D cells, FITC anti-human IgG Fcγ secondary antibody, median fluorescence
T1 construct: whole, on cells; also called Tumor-associated calcium signal transducer 2
T1 sequence (looked up): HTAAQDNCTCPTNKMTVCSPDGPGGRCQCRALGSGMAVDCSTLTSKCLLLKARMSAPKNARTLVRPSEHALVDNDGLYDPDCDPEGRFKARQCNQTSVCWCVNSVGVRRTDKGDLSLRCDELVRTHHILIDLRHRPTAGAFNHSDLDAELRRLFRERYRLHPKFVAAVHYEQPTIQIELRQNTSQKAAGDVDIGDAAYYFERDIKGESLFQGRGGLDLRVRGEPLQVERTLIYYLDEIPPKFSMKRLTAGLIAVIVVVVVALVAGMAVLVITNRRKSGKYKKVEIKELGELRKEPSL
Experimental: (§1) Target cells were harvested and transferred into a 96 well round bottom plate (100,000 cells per well). […] After the staining, the cells were washed twice with FACS buffer to remove unbound molecules. […] After 30 minutes incubation at 4° C. the cells were washed twice with FACS buffer to remove unbound antibodies. Finally, the cells were resuspended in 100 μl FACS buffer and analyzed by flow cytometry using BD Canto II.

[2] = target: T1, Trop2 on human cancer cell lines …; assay: flow cytometry on OVMANA cells, FITC anti-human IgG Fcγ secondary antibody, median fluorescence
Experimental: as §1

[3] = target: T1, Trop2 on human cancer cell lines …; assay: flow cytometry on HPAF II cells, FITC anti-human IgG Fcγ secondary antibody, median fluorescence
Experimental: as §1

[4] = target: T1, Trop2 on human cancer cell lines …; assay: flow cytometry on HeLa ST14 cells, FITC anti-human IgG Fcγ secondary antibody, median fluorescence
Experimental: as §1

[5] = target: T2, human CD3 on Jurkat NFAT reporter T cells (human, UniProt P07766 23-207); assay: flow cytometry on Jurkat NFAT reporter T cells (human CD3), 1:4 titration from 50 nM, FITC anti-human IgG Fcγ secondary antibody, median fluorescence; sample not treated with Matriptase
T2 construct: whole, on cells; also called CD3 on Jurkat T cells
Experimental: (§2) Jurkat-NFAT reporter cells (GloResponse Jurkat NFAT-RE-luc2P; Promega #CS176501) are a human acute lymphatic leukemia reporter cell line with a NFAT promoter, expressing human CD3. The cells were cultured in RPMI1640, 2 g/l glucose, 2 g/l NaHCO₃, 10% FBS, 25 mM HEPES, 2 mM L-glutamin, 1×NEAA, 1× sodium-pyruvate at 0.1-0.5 mio cells per ml.
(§3) The next day, Jurkat cells were harvested and transferred into a 96 well round bottom plate (100,000 cells per well). […] After the staining, the cells were washed twice with FACS buffer to remove unbound molecules. […] After 30 minutes incubation at 4° C. the cells were washed twice with FACS buffer to remove unbound antibodies. Finally, the cells were resuspended in 100 μl FACS buffer and analyzed by flow cytometry using BD Canto II.

[6] = target: T2, human CD3 on Jurkat NFAT reporter T …; assay: flow cytometry on Jurkat NFAT reporter T cells (human CD3), 1:4 titration from 50 nM, FITC anti-human IgG Fcγ secondary antibody, median fluorescence; sample pre-incubated overnight with Matriptase (+M)
Experimental: as §2, §3

[7] = target: T2, human CD3 on Jurkat NFAT reporter T …; assay: flow cytometry on Jurkat NFAT reporter T cells (human CD3), 1:4 titration from 50 nM, FITC anti-human IgG Fcγ secondary antibody, median fluorescence; sample not treated with Matriptase; remark: listed apart in the source
Experimental: (§4) Jurkat-NFAT reporter cells (GloResponse Jurkat NFAT-RE-luc2P; Promega #CS176501) are a human acute lymphatic leukemia reporter cell line with a NFAT promoter, expressing human CD3. The cells were cultured in RPMI1640, 2 g/l glucose, 2 g/l NaHCO₃, 10% FBS, 25 mM HEPES, 2 mM L-glutamin, 1×NEAA, 1×sodium-pyruvate at 0.1-0.5 mio cells per ml.
(§5) The next day, Jurkat cells were harvested and transferred into a 96 well round bottom plate (100′000 cells per well). […] After the staining, the cells were washed twice with FACS buffer to remove unbound molecules. […] After 30 min incubation at 4° C. the cells were washed twice with FACS buffer to remove unbound antibodies. Finally, the cells were resuspended in a 100 μl FACS buffer and analyzed by flow cytometry using BD Canto II.

[8] = target: T2, human CD3 on Jurkat NFAT reporter T …; assay: flow cytometry on Jurkat NFAT reporter T cells (human CD3), 1:4 titration from 50 nM, FITC anti-human IgG Fcγ secondary antibody, median fluorescence; sample pre-incubated overnight with Matriptase (+M); remark: listed apart in the source
Experimental: as §4, §5

T2 sequence (P07766 23-207): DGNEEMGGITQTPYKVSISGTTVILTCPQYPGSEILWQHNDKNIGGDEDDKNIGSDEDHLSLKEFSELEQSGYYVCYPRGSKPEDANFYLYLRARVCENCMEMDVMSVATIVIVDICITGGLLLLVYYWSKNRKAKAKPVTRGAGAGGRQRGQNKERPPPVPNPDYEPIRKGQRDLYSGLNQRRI

B2: non-cleavable IGF-1R proTCB P1AH0969 (IGF-1R pro-TCB 2+1; non-cleavable) (bispecific antibody, human IgG1, lambda, L234A L235A)
heavy 1: EIVLTQSPATLSLSPGERATLSCRASQSVSSYLAWYQQKPGQAPRLLIYDASKRATGIPARFSGSGSGTDFTLTISSLEPEDFAVYYCQQRSKWPPWTFGQGTKVESKSSASTKGPSVFPLAPSSKSTSGGTAALGCLVKDYFPEPVTVSWNSGALTSGVHTFPAVLQSSGLYSLSSVVTVPSSSLGTQTYICNVNHKPSNTKVDKKVEPKSCDKTHTCPPCPAPEAAGGPSVFLFPPKPKDTLMISRTPEVTCVVVDVSHEDPEVKFNWYVDGVEVHNAKTKPREEQYNSTYRVVSVLTVLHQDWLNGKEYKCKVSNKALGAPIEKTISKAKGQPREPQVCTLPPSRDELTKNQVSLSCAVKGFYPSDIAVEWESNGQPENNYKTTPPVLDSDGSFFLVSKLTVDKSRWQQGNVFSCSVMHEALHNHYTQKSLSLSPG
heavy 2: not shown
light 1: QAVVTQEPSLTVSPGGTVTLTCGSSTGAVTTSNYANWVQEKPGQAFRGLIGGTNKRAPGTPARFSGSLLGGKAALTLSGAQPEDEAEYYCALWYSNLWVFGGGTKLTVLGQPKAAPSVTLFPPSSKKLQANKATLVCLISDFYPGAVTVAWKADSSPVKAGVETTTPSKQSNNKYAASSYLSLTPEQWKSHRSYSCQVTHEGSTVEKTVAPTECS
light 2: QVELVESGGGVVQPGRSQRLSCAASGFTFSSYGMHWVRQAPGKGLEWVAIIWFDGSSTYYADSVRGRFTISRDNSKNTLYLQMNSLRAEDTAVYFCARELGRRYFDLWGRGTLVSVSSASVAAPSVFIFPPSDEQLKSGTASVVCLLNNFYPREAKVQWKVDNALQSGNSQESVTEQDSKDSTYSLSSTLTLSKADYEKHKVYACEVTHQGLSSPVTKSFNRGEC
notes: H1L2 mask joined by a GS linker without a protease site; also called non-cleavable IGF-1R TCB construct; non-cleavable proTCB
binding result [7]: no binding (tested: 50 nM)

B4: Matriptase pre-cleaved IGF-1R proTCB (P1AH0943 after overnight incubation with human recombinant Matriptase) (bispecific antibody)
heavy 1: B2 heavy 1
heavy 2: not shown
light 1: B2 light 1
light 2: B2 light 2
notes: also called Matriptase pre-cleaved (+M) IGF-1R proTCB
EC50 (read off the curve) [8]: ~0.9 nM

B5: Matriptase pre-cleaved Trop2 proTCB (P1AI0690 after overnight incubation with Matriptase) (bispecific antibody)
heavy 1: DIQMTQSPSSLSASVGDRVTITCKASQDVSIAVAWYQQKPGKAPKVLIYSASYRYTGVPDRFSGSGSGTDFTFTISSLQPEDIAVYYCQQHYITPLTFGGGTKVEIKSSASTKGPSVFPLAPSSKSTSGGTAALGCLVKDYFPEPVTVSWNSGALTSGVHTFPAVLQSSGLYSLSSVVTVPSSSLGTQTYICNVNHKPSNTKVDKKVEPKSCDKTHTCPPCPAPEAAGGPSVFLFPPKPKDTLMISRTPEVTCVVVDVSHEDPEVKFNWYVDGVEVHNAKTKPREEQYNSTYRVVSVLTVLHQDWLNGKEYKCKVSNKALGAPIEKTISKAKGQPREPQVCTLPPSRDELTKNQVSLSCAVKGFYPSDIAVEWESNGQPENNYKTTPPVLDSDGSFFLVSKLTVDKSRWQQGNVFSCSVMHEALHNHYTQKSLSLSPG
heavy 2: not shown
light 1: B2 light 1
light 2: QIQLVQSGHEVKKPGASVKVSCKASGYTFTNYGMNWVRQAPGQGLEWMGWINTKTGEPTYAEEFKGRFVFSLETSASTAYLQISSLKAEDMAMYFCGRGGYGSSYWYFDVWGQGTTVTVSSASVAAPSVFIFPPSDEQLKSGTASVVCLLNNFYPREAKVQWKVDNALQSGNSQESVTEQDSKDSTYSLSSTLTLSKADYEKHKVYACEVTHQGLSSPVTKSFNRGEC
notes: also called Matriptase pre-cleaved (+M) Trop2 proTCB
EC50 (read off the curve) [6]: ~0.9 nM

B6: non-cleavable Trop2 proTCB P1AI0691 (Trop2 pro-TCB 2+1; non-cleavable) (bispecific antibody, human IgG1, lambda, L234A L235A)
heavy 1: B5 heavy 1
heavy 2: not shown
light 1: B2 light 1
light 2: B5 light 2
notes: H1L2 mask joined by a GS linker without a protease site; also called non-cleavable proTCB
EC50 (read off the curve) [1]: ~2 nM
EC50 (read off the curve) [2]: ~3 nM
EC50 (read off the curve) [3]: ~2 nM
EC50 (read off the curve) [4]: ~2 nM
binding result [5]: no binding (tested: 50 nM)

Next, values leading:

EC50 (read off the curve) [1]: ~0.9 nM
EC50 (read off the curve) [2]: ~1 nM
EC50 (read off the curve) [3]: ~1 nM
EC50 (read off the curve) [4]: ~1 nM
EC50 (read off the curve) [5]: ~1 nM
EC50 (read off the curve) [6]: ~1 nM
B1: classical Trop2 TCB P1AI0692 (unmasked) (bispecific antibody, human IgG1, lambda, L234A L235A)
heavy 1: B5 heavy 1
heavy 2: not shown
light 1: B2 light 1
light 2: B5 light 2
notes: Tested with and without Matriptase pre-treatment; no mask; also called unmasked Trop2 TCB; unmasked classical TCB

EC50 (read off the curve) [7]: ~0.7 nM
EC50 (read off the curve) [8]: ~0.8 nM
B3: classical IGF-1R TCB P1AH0975 (unmasked) (bispecific antibody, human IgG1, lambda, L234A L235A)
heavy 1: B2 heavy 1
heavy 2: not shown
light 1: B2 light 1
light 2: B2 light 2
notes: Tested with and without Matriptase pre-treatment; no mask; also called unmasked classical IGF-1R TCB

binding result [7]: no binding (tested: 50 nM)
B7: IGF-1R proTCB P1AH0943 (IGF-1R pro-TCB 2+1; matriptase; P035.093 PQARK H1L2 mask), not Matriptase pre-cleaved (bispecific antibody, human IgG1, lambda, L234A L235A)
heavy 1: B2 heavy 1
heavy 2: not shown
light 1: B2 light 1
light 2: B2 light 2
notes: Knob-into-hole 2+1 format with the anti-idiotypic H1L2 scFv mask fused through a PQARK linker to the VH of the CD3 Fab; also called not-Matriptase pre-cleaved IGF-1R proTCB; not pre-cleaved IGF-1R proTCB

EC50 (read off the curve) [1]: ~2 nM
EC50 (read off the curve) [2]: ~1 nM
EC50 (read off the curve) [3]: ~1 nM
EC50 (read off the curve) [4]: ~1 nM
binding result [5]: no binding (tested: 50 nM)
B8: Trop2 proTCB P1AI0690 (Trop2 pro-TCB 2+1; matriptase; P035.093 PQARK H1L2 mask), not Matriptase pre-cleaved (bispecific antibody, human IgG1, lambda, L234A L235A)
heavy 1: B5 heavy 1
heavy 2: not shown
light 1: B2 light 1
light 2: B5 light 2
notes: Knob-into-hole 2+1 format; also called masked Trop2 proTCB; not pre-cleaved Trop2 proTCB
